The target of this experiment is T1, 天然のヒトCD4(細胞表面) (human, UniProt P01730 26-458).
T1 construct: whole, on cells; also called nCD4; CD4 on SupT1 cells
Kind of experiment: flow cytometry on SupT1 cells, serial dilutions, half-maximal fluorescence.

B1: 4D1 (antibody, V domains shown)
VH: EVQLVQSGAEVKKPGESLKISCKGSGYSFTGYWIGWVRQMPGKGLEWMGIIYPGDSDTTYSPSFQGQVTISADKSISTAYLQWSSLKASDTAMYYCARDQLGLFDYWGQGTLVTVSS
VL: DIQMTQSPSSLSASVGDRVTITCRASQGISSWLAWYQQKPEKAPKSLIYSASSLQSGVPSRFSGSGSGTDFTLTISSLQPEDFATYYCQQYDSYPYTFGQGTKLEIK
Take B1: the Ka was > 1e+09 M⁻¹.

Values taken from patent publication JP2009045066A (dated 2009).
